The supplement of paper PMC9112550, “Optimization of the antimicrobial peptide Bac7 by deep mutational scanning” (BMC Biology, 2022)

tested on: Escherichia coli TOP10; assay: shrunken log2 fold change of peptide-encoding DNA abundance (4.5 h post-induction vs induction); higher = less antimicrobial activity (less host growth inhibition); conditions: time post-induction: 4.5 h; library: site-saturation at positions 5, 18, 19, 20
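Further: peptides expressed intracellularly from a pBAD plasmid library in pooled LB shake-flask culture, induced with 0.3% L-arabinose, DNA abundance read by NGS, three biological replicates, DESeq2 with apeglm shrinkage.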

| Sequence | shrunken log2 fold change |
| --- | --- |
| RRIRYRPPRLPRPRPRPKQCPRP | -0.17 |
| RRIRCRPPRLPRPRPRPRPHPRP | 0.211 |
| RRIRVRPPRLPRPRPRPCLTPRP | -0.0353 |
| RRIRMRPPRLPRPRPRPHYIPRP | -0.335 |
| RRIRTRPPRLPRPRPRPRRPPRP | 0.493 |
| RRIRERPPRLPRPRPRPQATPRP | -0.0202 |
| RRIRERPPRLPRPRPRPVVQPRP | -0.104 |
| RRIRTRPPRLPRPRPRPTILPRP | -0.453 |
| RRIRPRPPRLPRPRPRPKILPRP | 0.0456 |
| RRIRHRPPRLPRPRPRPQWAPRP | -0.018 |
| RRIRWRPPRLPRPRPRPTFTPRP | 0.195 |
| RRIRQRPPRLPRPRPRPWRIPRP | -0.416 |
| RRIRLRPPRLPRPRPRPDACPRP | 0.252 |
| RRIRRRPPRLPRPRPRPDEAPRP | 0.376 |
| RRIRVRPPRLPRPRPRPPTMPRP | 0.0704 |
| RRIRIRPPRLPRPRPRPRIRPRP | -0.204 |
| RRIRNRPPRLPRPRPRPIPAPRP | -0.0451 |
| RRIRIRPPRLPRPRPRPGMHPRP | 0.00513 |
| RRIRERPPRLPRPRPRPFSAPRP | -0.161 |
| RRIRMRPPRLPRPRPRPVFGPRP | 0.411 |
| RRIRRRPPRLPRPRPRPLHHPRP | 0.31 |
| RRIRWRPPRLPRPRPRPTSTPRP | 0.0842 |

| Sequence | shrunken log2 fold change |
| --- | --- |
| RRIRFRPPRLPRPRPRPANWPRP | 0.166 |
| RRIRFRPPRLPRPRPRPTDSPRP | -0.0233 |
| RRIRHRPPRLPRPRPRPYDGPRP | -0.00992 |
| RRIRDRPPRLPRPRPRPTNPPRP | -0.417 |
| RRIRCRPPRLPRPRPRPAMKPRP | -0.104 |
| RRIRKRPPRLPRPRPRPLDLPRP | -0.203 |
| RRIRNRPPRLPRPRPRPDQFPRP | -0.0466 |
| RRIRSRPPRLPRPRPRPDYVPRP | 0.063 |
| RRIRQRPPRLPRPRPRPTWSPRP | 0.136 |
| RRIRTRPPRLPRPRPRPLFMPRP | -0.737 |
| RRIRSRPPRLPRPRPRPWHRPRP | -0.024 |
| RRIRRRPPRLPRPRPRPFTLPRP | -0.2 |
| RRIRARPPRLPRPRPRPGEEPRP | 0.999 |
| RRIRHRPPRLPRPRPRPFCNPRP | 0.00929 |
| RRIRDRPPRLPRPRPRPPCVPRP | 0.152 |
| RRIRVRPPRLPRPRPRPKQWPRP | 0.326 |
| RRIRQRPPRLPRPRPRPFIGPRP | -0.281 |
| RRIRGRPPRLPRPRPRPNLRPRP | 0.283 |
| RRIRIRPPRLPRPRPRPGANPRP | 0.0193 |
| RRIRQRPPRLPRPRPRPANTPRP | -0.118 |
| RRIRMRPPRLPRPRPRPLYVPRP | -0.111 |
| RRIRVRPPRLPRPRPRPGRYPRP | 0.303 |

| Sequence | shrunken log2 fold change |
| --- | --- |
| RRIRHRPPRLPRPRPRPDNIPRP | -0.207 |
| RRIRYRPPRLPRPRPRPFHEPRP | -0.245 |
| RRIRNRPPRLPRPRPRPHSFPRP | -0.258 |
| RRIRKRPPRLPRPRPRPYYAPRP | -0.0013 |
| RRIRDRPPRLPRPRPRPYSEPRP | -0.0337 |
| RRIRWRPPRLPRPRPRPNVYPRP | -0.234 |
| RRIRQRPPRLPRPRPRPHMEPRP | -0.172 |
| RRIRYRPPRLPRPRPRPVPKPRP | 0.0938 |
| RRIRERPPRLPRPRPRPYDRPRP | 0.0251 |
| RRIRQRPPRLPRPRPRPTQEPRP | 0.124 |
| RRIRRRPPRLPRPRPRPPECPRP | 0.222 |
| RRIRHRPPRLPRPRPRPKLHPRP | -0.271 |
| RRIRPRPPRLPRPRPRPVVKPRP | -0.181 |
| RRIRIRPPRLPRPRPRPQGHPRP | -0.0464 |
| RRIRRRPPRLPRPRPRPEGLPRP | 2.59 |
| RRIRERPPRLPRPRPRPYCDPRP | -0.0156 |
| RRIRYRPPRLPRPRPRPPGKPRP | 0.157 |
| RRIRWRPPRLPRPRPRPEVHPRP | -0.039 |
| RRIRLRPPRLPRPRPRPKRGPRP | 0.483 |
| RRIRFRPPRLPRPRPRPHWVPRP | -0.523 |
| RRIRYRPPRLPRPRPRPKDNPRP | -0.75 |
| RRIRHRPPRLPRPRPRPFMFPRP | -0.66 |

| Sequence | shrunken log2 fold change |
| --- | --- |
| RRIRPRPPRLPRPRPRPYRCPRP | -0.173 |
| RRIRGRPPRLPRPRPRPLPAPRP | 1.33 |
| RRIRNRPPRLPRPRPRPKPEPRP | 0.0739 |
| RRIRWRPPRLPRPRPRPPGLPRP | 0.601 |
| RRIRHRPPRLPRPRPRPKEYPRP | -0.0937 |
| RRIRPRPPRLPRPRPRPYEDPRP | -0.163 |
| RRIRQRPPRLPRPRPRPNLKPRP | -0.196 |
| RRIRARPPRLPRPRPRPNCWPRP | 0.563 |
| RRIRLRPPRLPRPRPRPCMSPRP | 0.0623 |
| RRIRVRPPRLPRPRPRPLSCPRP | -0.307 |
| RRIRDRPPRLPRPRPRPNEHPRP | -0.0707 |
| RRIRSRPPRLPRPRPRPTGFPRP | -0.0473 |
| RRIRTRPPRLPRPRPRPTLDPRP | 0.249 |
| RRIRMRPPRLPRPRPRPVKLPRP | -0.0873 |
| RRIRNRPPRLPRPRPRPWGSPRP | -0.275 |
| RRIRPRPPRLPRPRPRPQRCPRP | -0.0388 |
| RRIRLRPPRLPRPRPRPKMFPRP | 0.0156 |
| RRIRARPPRLPRPRPRPSCWPRP | 0.628 |
| RRIRFRPPRLPRPRPRPFLMPRP | -0.263 |
| RRIRNRPPRLPRPRPRPNYIPRP | -0.318 |
| RRIRFRPPRLPRPRPRPHNSPRP | -0.194 |
| RRIRARPPRLPRPRPRPSGSPRP | 0.216 |

| Sequence | shrunken log2 fold change |
| --- | --- |
| RRIRKRPPRLPRPRPRPVRIPRP | 0.494 |
| RRIRLRPPRLPRPRPRPKWDPRP | 0.184 |
| RRIRERPPRLPRPRPRPWDDPRP | -0.0464 |
| RRIRQRPPRLPRPRPRPIATPRP | -0.0607 |
| RRIRIRPPRLPRPRPRPATNPRP | -0.339 |
| RRIRQRPPRLPRPRPRPEDWPRP | -0.106 |
| RRIRVRPPRLPRPRPRPPWAPRP | 0.537 |
| RRIRGRPPRLPRPRPRPGVRPRP | 0.659 |
| RRIRPRPPRLPRPRPRPHGGPRP | 0.216 |
| RRIRWRPPRLPRPRPRPSKSPRP | -0.0449 |
| RRIRARPPRLPRPRPRPIMYPRP | -0.161 |
| RRIRSRPPRLPRPRPRPNRFPRP | -0.0804 |
| RRIRCRPPRLPRPRPRPDNDPRP | -0.124 |
| RRIRCRPPRLPRPRPRPTANPRP | 0.0466 |
| RRIRKRPPRLPRPRPRPAIPPRP | 0.000942 |
| RRIRWRPPRLPRPRPRPYIDPRP | -0.23 |
| RRIRDRPPRLPRPRPRPGNVPRP | -0.0882 |
| RRIRLRPPRLPRPRPRPATEPRP | 0.149 |
| RRIRLRPPRLPRPRPRPEPMPRP | -0.0888 |
| RRIRVRPPRLPRPRPRPECGPRP | 0.691 |
| RRIRTRPPRLPRPRPRPDMYPRP | -0.235 |
